T1: ANK1-F2 (ankyrin 1 membrane-binding domain fragment 2, aa 250–568) (human, UniProt P16157 250-568)
T1 construct: amplified from cDNA of human reticulocyte mRNA; also called HA-ANK1-F2; HA-tagged ANK1-F2; source: E. coli BL21 (DE3) pLysS, pET30a, purified; not shown: HA, C-terminal, kept
T1 sequence (looked up): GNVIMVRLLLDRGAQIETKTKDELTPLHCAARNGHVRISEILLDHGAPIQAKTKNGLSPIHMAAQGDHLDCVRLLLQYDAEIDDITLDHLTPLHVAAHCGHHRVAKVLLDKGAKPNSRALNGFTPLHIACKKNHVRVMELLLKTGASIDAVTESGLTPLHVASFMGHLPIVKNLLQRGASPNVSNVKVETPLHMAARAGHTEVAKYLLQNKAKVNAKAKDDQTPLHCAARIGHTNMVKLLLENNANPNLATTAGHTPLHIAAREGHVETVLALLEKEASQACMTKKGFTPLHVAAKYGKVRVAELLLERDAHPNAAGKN

B1: recombinant PvGAMA-F2 (P. vivax glycosylphosphatidylinositol-anchored micronemal antigen, aa 345–589) (domain or fragment)
chain: DVSVDEKGDRATTAGGNQSASVAAAAPKDAGPTVAAPNTAATLKTAASPNAAATNTAAPPNMGATSPLSNPLYGTSSLQPKDVAVLVRDLLKNTNIIKFENNEPTSQMDDEEIKKLIESSFFDLSDNTMLMRLLIKPQAAILLIIESFIMMTPSPTRDAKTYCKKALVNGQLIETSDLNAATEEDDLINEFSSRYNLFYERLKLEELREIEQNRKALKNSKGTLSVLEVANSQNAPDGKGVNGSG
notes: PvGAMA, P. vivax, PVX_088910, 771-amino acid protein; Cloned into BamH1/Xho1 sites of pET30a; further vector-encoded residues may be present; also called His-PvGAMA-F2; source: E. coli BL21 (DE3) pLysS, pET30a, purified (Ni-NTA); not shown: Flag, C-terminal, kept
B2: recombinant PfGAMA-Tr3 (P. falciparum glycosylphosphatidylinositol-anchored micronemal antigen, aa 500–715) (domain or fragment)
chain: KDIIKLLKDLIKYLHIVKFENNEPTTNIDEEGIRKLLENSFFDLNDDILIVRLLLKPQTVILTVIQSFMLMTPSPSRDAKAYCKKALINDQLVPTNDTNILSEENELVNNFSTKYVLIYEKMKLQELKEMEESKLKMKYSKTNLSALQVTNPQNNKDKNDASNKNNNPNNSSTPLIAVVTDLSGEKTEDIINNNVDIATLSVGVQNTFQGPNAKAG
notes: PfGAMA, P. falciparum, PF3D7_0828800, 738-amino acid protein; Cloned into BamH1/Xho1 sites of pET30a; further vector-encoded residues may be present; also called His-PfGAMA-Tr3; Flag-PfGAMA-Tr3; source: E. coli BL21 (DE3) pLysS, pET30a, purified (Ni-NTA); not shown: Flag, C-terminal, kept

Molecular target: T1, ANK1-F2 (ankyrin 1 membrane-binding …)
Assay: SPR; BIAcore S200, 25 °C, HBS-EP pH 7.4; ANK1-F2 immobilised on a CM5 chip, PfGAMA-Tr3 or PvGAMA-F2 injected at varying concentrations; response at equilibrium against concentration, 1:1 Langmuir model
Details: both partners purified

Binder	Kd [µM]
B1	13.8
B2	0.166
